In patent US20030113320A1 (BURNHAM INSTITUTE, published 2003):
Where no end group is shown, it is not given here.

B1: CARAC peptide (SEQ ID NO:221) (peptide)
peptide: CARAC
notes: also called negative control CARAC; control peptide
B2: CNGRC cyclic peptide (SEQ ID NO:8) (peptide)
peptide: CNGRC
modifications: also: cyclized (cyclic peptide), ring type not given here
notes: also called NGR cyclic peptide; soluble CNGRC peptide

Columns and labels:
[1] = target: T1, CD13/aminopeptidase N (CD13/APN), isolated from octylglucoside cell extracts (Homo sapiens (Human), UniProt P15144 2-967); assay: peptide affinity chromatography of cell extracts
T1 construct: The source cell lines are human; also called NGR receptor; immuno-isolated CD13
T1 sequence (P15144 2-967 R86Q limits assumed): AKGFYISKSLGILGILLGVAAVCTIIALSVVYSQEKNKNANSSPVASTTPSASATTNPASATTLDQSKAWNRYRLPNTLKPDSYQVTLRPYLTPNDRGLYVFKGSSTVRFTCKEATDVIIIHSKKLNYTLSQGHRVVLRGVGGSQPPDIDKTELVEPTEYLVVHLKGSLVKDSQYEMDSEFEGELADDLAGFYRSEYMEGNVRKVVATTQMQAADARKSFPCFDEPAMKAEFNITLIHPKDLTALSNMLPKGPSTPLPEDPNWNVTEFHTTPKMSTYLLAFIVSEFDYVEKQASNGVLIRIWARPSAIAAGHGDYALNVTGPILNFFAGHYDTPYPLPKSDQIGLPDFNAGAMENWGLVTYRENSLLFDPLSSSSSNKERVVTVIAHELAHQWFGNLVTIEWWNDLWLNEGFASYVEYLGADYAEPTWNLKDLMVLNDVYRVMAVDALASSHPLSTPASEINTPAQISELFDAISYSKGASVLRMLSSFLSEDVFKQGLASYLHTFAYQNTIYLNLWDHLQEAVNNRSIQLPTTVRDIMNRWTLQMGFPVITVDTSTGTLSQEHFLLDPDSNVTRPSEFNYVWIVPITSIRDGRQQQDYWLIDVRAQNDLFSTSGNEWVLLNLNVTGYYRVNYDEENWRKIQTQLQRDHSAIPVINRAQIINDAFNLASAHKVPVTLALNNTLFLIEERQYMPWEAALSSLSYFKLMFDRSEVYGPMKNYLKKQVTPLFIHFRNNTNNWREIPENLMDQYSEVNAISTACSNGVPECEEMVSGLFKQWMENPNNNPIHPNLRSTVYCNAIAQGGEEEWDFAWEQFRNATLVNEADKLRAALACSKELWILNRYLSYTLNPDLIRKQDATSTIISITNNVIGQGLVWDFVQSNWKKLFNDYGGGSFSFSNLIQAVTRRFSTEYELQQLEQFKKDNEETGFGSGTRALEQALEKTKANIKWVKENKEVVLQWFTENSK
Method: (§1) To further characterize the interaction of CD13/APN with the NGR peptide, affinity chromatography on the CNGRC peptide was performed. The column was prepared by coupling the CNGRC peptide to SEPHAROSE (Pharmacia; Piscataway N.J.). Elution was effected with soluble CNGRC peptide. Experiments were performed using HL-60 cell extracts because they are known to express CD13/APN without other proteases that could interfere in the APN assay (Xu et al., supra (1997)). Thus, in HL-60 cell extracts, all detectable cell surface enzymatic activity is inhibitable by anti-CD13 blocking antibodies, assuring specificity. Extracts of Molt-4 and MDA-MB-435 cells transfected with CD13/APN were also characterized by using affinity chromatography, with extracts of the mock transfected counterparts used as negative controls.
(§2) Briefly, CD13 was detected by testing aliquots of each fraction for the presence of CD13 immunoreactivity in ELISA with the anti-CD13 monoclonal antibody WM15, using normal mouse IgG as a negative control. The fractions were also analyzed for CD13 enzymatic activity using AlapNA as the substrate. […] Furthermore, no CD13 activity was recovered from the CNGRC column when the extract fractionated was derived from CD13-negative cells (see FIG. 6).

[2] = target: T2, CD13/aminopeptidase N on CD13-transfected cells (Molt-4/CD13, MDA-MB-435/CD13) (Homo sapiens (Human), UniProt P15144 2-967); assay: competition with CNGRC phage on CD13-transfected cells; peptide at 250 and 500 ug/ml
T2 construct: The parental lines express no endogenous CD13; The transfected construct is not described; also called CD13/APN
T2 sequence (P15144 2-967 R86Q limits assumed): as above
Method: The CNGRC phage binds specifically to cells transfected with CD13. […] Briefly, mock transfected Molt-4 cells (“Molt-4/mock”) and cells transfected with CD13 (“Molt-4/CD13”) were incubated with CNGRC (SEQ ID NO:8) phage or with control Fd phage lacking an insert (2× 10^9 transducing units (TU) per sample). […] After extensive washing, bound phage were quantitated by infection of bacteria as described above.

[3] = target: T1, CD13/aminopeptidase N (CD13/APN), …; assay: affinity chromatography of Molt-4/CD13, MDA-MB-435/CD13 or HL-60 cell extracts on CNGRC-SEPHAROSE
Method: as §1, §2

Binder	binding result [1]	binding result [2]	binding result [3]
B1	no binding		
B2		binds	binds
